# Assay: yeast display, Sf9 membrane polyspecificity reagent, FACS + sequencing; frameworks hold sequencing errors
# How it was run: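 After 36–48 hours of galactose induction, yeast (Saccharomyces cerevisiae BJ5465) displaying a synthetic nanobody library were stained at 4 °C for 1 hour with 10% biotinylated, detergent-solubilized Sf9 membrane reagent. Streptavidin microbeads enriched the stained cells before FACS sorting into low and high (top ~1%) gates on anti-HA and streptavidin fluorescence. Each clone's polyreactivity label reflects its gate of origin.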
row,Sequence,polyreactivity (PSR sort gate)
1,QVQLVESGGGLVQAGGSLRLSCAASGFTFGYYAMGWYRQAPGKERELVAAITWSGGRTYYADSVKGRFTISRDNAKNTVYLQMNSLKPEDTAVYYCAVETLWQGSEYWGQGTQVTVSS,low polyreactivity
2,QVQLVESGGGLVQAGGSLRLSCAASGFTFGYYAMGWYRQAPGKERELVATISYGGGSTYYADSVKGRFTISRDNAKNTVYLQMNSLKPEDSAVYYCAASYLVQAPVSGYVYRMYYWGQGTQVTVSS,high polyreactivity
3,QVQLVESGGGLVQAGGSLRLSCAASGFTFGYYGMGWYRQAPGKERELVAAISWSGGSTYYADSVKGRFTISRDNAKNTVYLQMNSLKPEDTAVDYCNADYAGFYQRRYIEDDYWGQGTQVTVSS,low polyreactivity
4,QVQLVESGGGLVQAGGSLRLSCAASGFTFGYYVMGWYRQAPGKERELVAAITSGGSTYYADSVKGRFTISRDNAKNTVYLQMNSLKREDTAVYYCNKYGVVLPGFDYWGQGTQVTVSS,high polyreactivity
5,QVQLVESGGGLVQAGGSLRLSCAASGFTFHDYAMGWYRQAPGKERELVAAITKSGGRTYYADSVKGRFTISRDNAKNTVYLQMNSLKPEDTAVYYCAAASYRSQYDYYYWGQGTQVTVSS,high polyreactivity
6,QVQLVESGGGLVQAGGSLRLSCAASGFTFHDYVMAWYRQAPGKERELVAAISRSGGSTYYADSVKGRFTISRDNAKHTVYLQMNSLIPEDTAVYYCAAREYTTGGWRYNYWGQGTQVTVSS,high polyreactivity
7,QVQLVESGGGLVQAGGSLRLSCAASGFTFHNYAMGWYRQAPGKERDFVAAITRNTASTYYADSVKGRFTISRDNAKNTVYLQMNSLKPEDTAVYYCNASRVVYRQAYLYGYDYWGQGTQVTVSS,low polyreactivity
8,QVQLVESGGGLVQAGGSLRLSCAASGFTFHNYAMGWYRQAPGKEREFVAAITRNTASTYYADSVKGRFTISRDNAKNTVYLQMNSLNPEDTAVYYCAATDKKHRTAYDSWGQGTQVTVSS,low polyreactivity
9,QVQLVESGGGLVQAGGSLRLSCAASGFTFHVYAMGWSRQAPGKERELVAAISTGDDTTFYADSVKGRLTISRDNAKNTVYLQMNSLKPEDTAVYYCAAAYGTPYGGYDYWGQGTQVTVSS,low polyreactivity
10,QVQLVESGGGLVQAGGSLRLSCAASGFTFHYYTMGWYRQAPGKEREFVAAISKSGGRTYYADSVKGRFTISRDNAKNTVYLQMNSLKPEDTAVYYCATVGYWRNRHDYWGQGTQVTVSS,high polyreactivity
11,QVQLVESGGGLVQAGGSLRLSCAASGFTFIFNAMGWYRQAPGKERELVATISWGGGSTYYADSVKGRFTISRDNAKNTVYLQMNSLKPEDTAVYYCNADGYTLWYEYDYWGQGTQVTVSS,low polyreactivity
12,QVQLVESGGGLVQAGGSLRLSCAASGFTFIGNAMGWYRQAPGKERELVAAISSSGGRTYYADSVKGRFTISRDNAKNTVDLQMNSLKPEDTAVYYCATRQYRGVYYWGQGTQVTVSS,high polyreactivity
13,QVQLVESGGGLVQAGGSLRLSCAASGFTFIGYAMGWYRQAPGKEREFVAAITSGGSTYYADSVKGRFTISRDNAKNTVYLQMNSLKPEDTAVYYCAARSVYTASYRRVWINPQLDYWGQGTQVTVSS,high polyreactivity
14,QVQLVESGGGLVQAGGSLRLSCAASGFTFIGYAMGWYRQAPGKERELVAAITISGGSTYYADSVKGRFTISRDNAKNTVYLQMNSLKPEDTAVYYCNVYRLAAFYSLRGYRYDYWGQGTQVTVSS,high polyreactivity
15,QVQLVESGGGLVQAGGSLRLSCAASGFTFIQYDMGWYRQAPGKERELVAAISSSGGSTYYADSVNGRFTISRDNAKNTFYLQMNSLKPEDTGVYYCAADPWVRLEYDYWGQGTQVTVSS,low polyreactivity
16,QVQLVESGGGLVQAGGSLRLSCAASGFTFIRNAMGWYRPAPGKERELVAAISTSGGTTYYADSVKGRFTISRDNAKNTVYLQMNSLKPEDTAVYYCNKGIGRSDPDYRYYYWGQGTQVTVSS,high polyreactivity
17,QVQLVESGGGLVQAGGSLRLSCAASGFTFIRNAMGWYRQAPGKERELVAAISKRGGSTNYADSVKGRFTISRDNAKTTVYLLMNSLKPEDTAVYYCAADVDTRSSSGYWGQGTQVTVSS,low polyreactivity
18,QVQLVESGGGLVQAGGSLRLSCAASGFTFIRYAMGWYRQAPGKERELVARITSGGSTYYADSVKGRFTISRDNAKNTVYLQMNSLKPEDTAVYYCNADKWYIIQGYYWPGYEYWGQGTQVTVSS,low polyreactivity
19,QVQLVESGGGLVQAGGSLRLSCAASGFTFIRYAMGWYSQAAGKDRELVARITSSGSSTYADSVKGRFTISRDKAKNTVYLQMNSLKPEDTAVYYCAAKVHTRRRFDYWGQGTQVTVSS,high polyreactivity
20,QVQLVESGGGLVQAGGSLRLSCAASGFTFISNAMGWYRKAPGKERELVAAISSSGGRTYYADSVKGRFTISRDNAKNTVYLQMNSLKPEDTAVYYCNADRSLLYSRKIEYDYWGQGTQVTVSS,low polyreactivity

row,Sequence,polyreactivity (PSR sort gate)
1,QVQLVESGGGLVQAGGSLRLSCAASGFTFISYGMGWYRQAPGKEREFVAAISYSGTGTYYADSVKVRFTISRDNAKNTVYLQMNSLKPEDTAVYYCAVYSRDFRRYDYWGQGTQVTVSS,high polyreactivity
2,QVQLVESGGGLVQAGGSLRLSCAASGFTFIWYAMGWYRQAPGKETELVATISWNGGRTYYADSVKGRFTISRDNANNTVYLQMNSLKPEDTAVYYCAADQGVYRTYWFDYWGQGTQVAVSS,high polyreactivity
3,QVQLVESGGGLVQAGGSLRLSCAASGFTFIYYALGWYRQAPGKERELLATISYDGGSTYYSDSVKGRFTISRDNAKNTVYLQMNSLKPEDTAVYYCNADFADDKYYLFESELEYDYWGQGTQVTVSS,low polyreactivity
4,QVQLVESGGGLVQAGGSLRLSCAASGFTFIYYAMGWYRQAPGKERELVAAISRRGGSTYYADSVKGRFTISRDNAKNTVYLQMNSLKPEDTAVYYCAADYTSAILRSDYWGQGTQVTVSS,high polyreactivity
5,QVQLVESGGGLVQAGGSLRLSCAASGFTFIYYAMGWYRQAPGKERELVAGISSGGRTSYADSVKGRFTISRDNAKNTVYLQMNSLKPEDTAVYYCATPVSRFRRTEYGYYYWGQGTQVTVSS,high polyreactivity
6,QVQLVESGGGLVQAGGSLRLSCAASGFTFKFYAMGWYRQAPGKEREFVAAISHSGGRTYYADSVKGRFTISSDNAKNTVYLQLNILKPEDTAFYYCAAAEGGGLVTYDYWGQGTQVTVSS,low polyreactivity
7,QVQLVESGGGLVQAGGSLRLSCAASGFTFKGYTMGWYRQAPGKERELVAAISRSGGRTYYADSVKGRFTISRDNAKNTVYLQMNSLKPEDTAVYYCAAVIIGGHDYWGQGTQVTVSS,high polyreactivity
8,QVQLVESGGGLVQAGGSLRLSCAASGFTFKINGMGWYRQATGKEREFVATIRTSTGRTNYADSVKGRFTISRDNAKNTVYLQMNSLKPEDTAVYYCAATFKSGMDYWGQGTQVTVSS,high polyreactivity
9,QVQLVESGGGLVQAGGSLRLSCAASGFTFKKNAMGWYRQAPGKERELVAAIRSGTSTKYADSVKGRFTISRDNAKNTVYLQMNSLKPEDTAVYYCAAEEPEYLATWRNRRYDYWGQGTQVTVSS,low polyreactivity
10,QVQLVESGGGLVQAGGSLRLSCAASGFTFKSNAMGWYRQAPGKERELVAAISGSGGRTYYADSVKGRYTISRDTAKYTVYLQMNSLKPEDTAVYYCAADYPVRSYDYWGQGTQVTVSS,low polyreactivity
11,QVQLVESGGGLVQAGGSLRLSCAASGFTFKVYNAMGWYRQAPGKERELVAAISSSVGGTYYADSVKGRFTISRDYAKNTVYLQMNSLKPEDTAVYYCATDDFTYVVAKDGDYWGQGTQVTVSS,low polyreactivity
12,QVQLVESGGGLVQAGGSLRLSCAASGFTFKYNVMGWYIQAPGKERELVAAISSAGNTNYADSVKGRFTISRDNAKNTVYLQMNSLKPEDTAVYFCAKRRDTLYVGVEGYYWGQGTQVTVSS,high polyreactivity
13,QVQLVESGGGLVQAGGSLRLSCAASGFTFKYYAMGWYREAPGKERELVAAISLTGGSTYYADSVKGRFTISRDNAKNTVYFQMHSLIPEDTAVNYCNAVQGRQRGWEGPYGYWGQGTQVTVST,high polyreactivity
14,QVQLVESGGGLVQAGGSLRLSCAASGFTFKYYAMGWYRQAPGKERELVATITRSGGNTYYADSVKGRFTISRDNAKNTVYLQMNSLKPEDTAVYYCNTRRPGKYDYWGQGTQVTVSS,high polyreactivity
15,QVQLVESGGGLVQAGGSLRLSCAASGFTFKYYVMGWYRQAPGKERELVASISKRGGSTRYADSVKGRFTISRDNAKNTVYLQMNSLKPEDTAVYYCAARSKVHRWRKRYDYWGQGTQVSVSS,high polyreactivity
16,QVQLVESGGGLVQAGGSLRLSCAASGFTFLAYAMVWYRQAPGKERELVAAIRWSGGRTYYADSVKGRFTISRDNAKNTVYLQMNSLKPEDTAVYYCAADTRRVREYNYWGQGTQVTVSS,low polyreactivity
17,QVQLVESGGGLVQAGGSLRLSCAASGFTFLGYVMGWYRQAPGKEREFVADITESGGRTYYADSVKGRFTISRDNAKNTVYLQMNSLKPEDTAVYYCAAELSYWGYYYSFDYWGQVTQVTVSS,low polyreactivity
18,QVQLVESGGGLVQAGGSLRLSCAASGFTFLHNAMGWYRQAPGKDRELVAAISYSGGSTYADSVKGRFTISRDNAKYTVYLQMNSLKPEDTADYYCNADYSSQDNFDYWGQGTQVTVSS,low polyreactivity
19,QVQLVESGGGLVQAGGSLRLSCAASGFTFLKNAMGWYRQAPGKERELVAAITGSGGSTYYADSVKGRFTISRDNAKNTVYLQMNSLKPEDTAVYYCNVRRGLRAYEYWGQGTQVTVSS,high polyreactivity
20,QVQLVESGGGLVQAGGSLRLSCAASGFTFLPYVMGWYRQAPGKERELVAAISSSGGSTYYADSVKGRFTISRDNAKNTVYLQMNSLKPEDTAVYYCAKEIGVRRRDYEDYEYWGQGTQVTVSS,low polyreactivity

# — the nanobody polyreactivity screen of Harvey et al. (2022)
